Experimental data: patent US20040073013A1 (Chugai, published 2004)

How the values were obtained:
[1] = molecular target: T1, human Integrin Associated Protein (IAP) expressed on mouse leukemia cell line L1210 (human, UniProt Q08722 19-323); test: flow cytometry, COS7 supernatant on L1210 cells expressing human IAP, anti-FLAG detection
T1 construct: whole, on cells; also called human IAP; hIAP/L1210
Description: Flow cytometry was performed using the culture supernatants of COS7 cells prepared in Example 6.3 (1) to measure the binding of the MABL2-scFVs and sc(Fv)₂ to human Integrin Associated Protein (IAP) antigen. The culture supernatants to be tested or a culture supernatant of COS7 cells as a control was added to 2×10⁵ cells of the mouse leukemia cell line L1210 expressing human IAP. After incubating on ice and washing, 10 μg/mL of the mouse anti-FLAG antibody (SIGMA) was added and then the cells were incubated and washed. Then, the FITC labeled anti-mouse IgG antibody (BECTON DICKINSON) was added thereto and the cells were incubated and washed again. The fluorescence intensity was measured using the FACScan apparatus (BECTON DICKINSON).

[2] = molecular target: secretion-type human IAP antigen (human, UniProt Q08722 19-142, limits assumed); test: competitive ELISA on captured secretion-type human IAP; competitor biotinized MABL-2 antibody
Chain of secretion-type human IAP antigen (Q08722 other isoform, or with tags, fused parts or gaps limits assumed): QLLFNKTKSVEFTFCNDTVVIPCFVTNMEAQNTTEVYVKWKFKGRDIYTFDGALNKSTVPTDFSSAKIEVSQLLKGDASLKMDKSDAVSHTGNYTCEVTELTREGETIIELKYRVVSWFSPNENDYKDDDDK
Description: The binding activity of the reconstructed single-chain Fv of antibody MABL-2 was measured based on the inhibiting activity against the binding of mouse monoclonal antibodies to the antigen.
The anti-FLAG antibody adjusted to 1 μg/ml was added to each well on 96-well plate and incubated at 37° C. for 2 hours. After washing, blocking was performed with 1% BSA-PBS. After incubating and washing at a room temperature, the culture supernatant of COS7 cells into which the secretion-type human IAP antigen gene (SEQ ID No. 26) had been introduced was diluted with PBS into twofold volume and added to each well. After incubating and washing at a room temperature, a mixture of 50 μl of the biotinized MABL-2 antibody adjusted to 100 ng/ml and 50 μl of sequentially diluted supernatant of the COS7 cells expressing the reconstructed single-chain Fv of antibody MABL-2 were added into each well. After incubating and washing at a room temperature, the alkaline phosphatase-conjugated streptoavidin (Zymed) was added into each well. After incubating and washing at a room temperature, the substrate solution (SIGMA) was added and absorbance of the reaction mixture in each well was measured at 405 nm.

[3] = molecular target: T1, human Integrin Associated Protein (IAP) …; test: flow cytometry, COS7 supernatant on L1210 cells expressing human IAP
Description: Flow cytometry was performed using the aforementioned culture supernatant of COS7 cells to measure binding to the antigen. The culture supernatant of the COS7 cells expressing the chimera MABL-1 antibody or the COS7 cells expressing the chimera MABL-2 antibody, or human IgG antibody (SIGMA) as a control was added to 4×10⁵ cells of mouse leukemia cell line L1210 expressing human IAP and incubated on ice. After washing, the FITC-labeled anti-human IgG antibody (Cappel) was added thereto. After incubating and washing, the fluorescence intensity thereof was measured using the FACScan apparatus (BECTON DICKINSON).

T1 sequence (Q08722 19-323): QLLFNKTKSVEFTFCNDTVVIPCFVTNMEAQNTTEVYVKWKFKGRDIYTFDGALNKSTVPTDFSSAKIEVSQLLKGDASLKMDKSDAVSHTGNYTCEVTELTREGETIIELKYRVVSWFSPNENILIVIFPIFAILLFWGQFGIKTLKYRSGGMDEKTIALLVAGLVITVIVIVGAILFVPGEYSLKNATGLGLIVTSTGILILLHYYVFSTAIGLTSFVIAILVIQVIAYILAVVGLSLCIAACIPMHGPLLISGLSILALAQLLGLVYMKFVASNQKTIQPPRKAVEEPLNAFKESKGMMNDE

| binding result [1] | binding result [2] | binding result [3] | Binder |
| --- | --- | --- | --- |
| binds | – | – | MABL2-scFv <LH-0> (scFv, [L chain V]-[H chain V] without a linker, with a leader at the 5' end and FLAG at the C-terminus; COS7 culture supernatant; also called CF2LH-0/pCOS1) scFv: DVVMTQSPLSLPVSLGDQASISCRSSQSLVHSNGKTYLHWYLQKPGQSPKLLIYKVSNRFSGVPDRFSGSGSVTDFTLMISRVEAEDLGVYFCSQSTHVPYTFGGGTKLEIKQVQLQQSGPELVKPGASVKMSCKASGYTFANHVIHWVKQKPGQGLEWIGYIYPYNDGTKYNEKFKDKATLTSDKSSTTAYMDLSSLASEDSAVYYCARGGYYTYDDWGQGTTLTVSSDYKDDDDK |
| binds | – | – | MABL2-scFv <HL-0> (scFv, [H chain V]-[L chain V] without a linker, with a leader at the 5' end and FLAG at the C-terminus; COS7 culture supernatant; also called CF2HL-0/pCOS1) scFv: QVQLQQSGPELVKPGASVKMSCKASGYTFANHVIHWVKQKPGQGLEWIGYIYPYNDGTKYNEKFKDKATLTSDKSSTTAYMDLSSLASEDSAVYYCARGGYYTYDDWGQGTTLTVSSDVVMTQSPLSLPVSLGDQASISCRSSQSLVHSNGKTYLHWYLQKPGQSPKLLIYKVSNRFSGVPDRFSGSGSVTDFTLMISRVEAEDLGVYFCSQSTHVPYTFGGGTKLEIKDYKDDDDK |
| binds | binds | – | reconstructed single-chain Fv of antibody MABL-2 (MABL2-scFv), from pCHOM2-transfected COS7 cells (scFv, Tested as COS7 culture supernatant; also called MABL2-scFv/COS7) scFv: QVQLQQSGPELVKPGASVKMSCKASGYTFANHVIHWVKQKPGQGLEWIGYIYPYNDGTKYNEKFKDKATLTSDKSSTTAYMDLSSLASEDSAVYYCARGGYYTYDDWGQGTTLTVSSGGGGSGGGGSGGGGSDVVMTQSPLSLPVSLGDQASISCRSSQSLVHSNGKTYLHWYLQKPGQSPKLLIYKVSNRFSGVPDRFSGSGSVTDFTLMISRVEAEDLGVYFCSQSTHVPYTFGGGTKLEIKDYKDDDDK |
| binds | – | – | antibody MABL-2 sc(Fv)2, reconstructed polypeptide comprising two H chain V regions and two L chain V regions (other, Single chain VH-VL-VH-VL from plasmid pCHOM2(Fv)2, with a C-terminal FLAG; Eluted at the position of the monomer in gel filtration) QVQLQQSGPELVKPGASVKMSCKASGYTFANHVIHWVKQKPGQGLEWIGYIYPYNDGTKYNEKFKDKATLTSDKSSTTAYMDLSSLASEDSAVYYCARGGYYTYDDWGQGTTLTVSSGGGGSGGGGSGGGGSDVVMTQSPLSLPVSLGDQASISCRSSQSLVHSNGKTYLHWYLQKPGQSPKLLIYKVSNRFSGVPDRFSGSGSVTDFTLMISRVEAEDLGVYFCSQSTHVPYTFGGGTKLEIKGGGGSGGGGSGGGGSVDSQVQLQQSGPELVKPGASVKMSCKASGYTFANHVIHWVKQKPGQGLEWIGYIYPYNDGTKYNEKFKDKATLTSDKSSTTAYMDLSSLASEDSAVYYCARGGYYTYDDWGQGTTLTVSSGGGGSGGGGSGGGGSDVVMTQSPLSLPVSLGDQASISCRSSQSLVHSNGKTYLHWYLQKPGQSPKLLIYKVSNRFSGVPDRFSGSGSVTDFTLMISRVEAEDLGVYFCSQSTHVPYTFGGGTKLEIKDYKDDDDK |
| – | – | binds | chimera MABL-1 antibody (antibody, V domains shown, Mouse MABL-1 V regions cloned into HEF-kappa and HEF-gamma expression vectors carrying human C regions (WO92/19759); Tested as COS7 culture supernatant) VH: QVQLQQSGPDLVKPGASVKMSCKASGYTFVNHVMHWVKQKPGQGLEWIGYIYPYNDGTKYNEKFKGKATLTSEKSSSAAYMELSSLASEDSAVYYCARGGYYSYDDWGQGTTLTVSS VL: DVVMTQTPLSLPVSLGDQASISCRSSQSLLHSKGNTYLQWYLQKPGQSPKLLIYKVSNRFSGVPDRFSGSGSGTDFTLKISRVEAEDLGVYFCSQSTHVPYTSGGGTKLEIK |
| – | – | binds | chimera MABL-2 antibody (antibody, V domains shown, Mouse MABL-2 V regions cloned into HEF-kappa and HEF-gamma expression vectors carrying human C regions (WO92/19759); Tested as COS7 culture supernatant) VH: QVQLQQSGPELVKPGASVKMSCKASGYTFANHVIHWVKQKPGQGLEWIGYIYPYNDGTKYNEKFKDKATLTSDKSSTTAYMDLSSLASEDSAVYYCARGGYYTYDDWGQGTTLTVSS VL: DVVMTQSPLSLPVSLGDQASISCRSSQSLVHSNGKTYLHWYLQKPGQSPKLLIYKVSNRFSGVPDRFSGSGSVTDFTLMISRVEAEDLGVYFCSQSTHVPYTFGGGTKLEIK |
